Here are results for 94 variants from the supplement of paper PMC10567573.

B1: CDC14A (parent)
chain: GPHPKSKIENGYPLHAPEAYFPYF
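Further: lentivirally expressed fusions sorted by FACS into six bins by GFP to DsRed ratio, PSI derived from sequencing read proportions per bin multiplied by bin number.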

The variants in this series derive from B1. The experiment in a line: protein stability index of a GFP-peptide fusion (GPS, HEK-293T) (PSI 1-6); higher = more stable. The note with it: c terminus: a fixed tail appended.
As for GPHPKSKIENGYFLHAPEAYFPYF [P13F], the protein stability index was 1.92.
As for GPHPKSKIENGYDLHAPEAYFPYF [P13D], the protein stability index was 2.81.
In the case of GPHPKSKIENGYGLHAPEAYFPYF [P13G] it was 2.39; in that of GPHPKSKIENGYRLHAPEAYFPYF [P13R], 2.06; in that of GPHPKSKIENGYNLHAPEAYFPYF [P13N], 2.68.
With GPHPKSKIENGYQLHAPEAYFPYF [P13Q], the protein stability index was found to be 2.43.
In the case of GPHPKSKIENGYSLHAPEAYFPYF [P13S] it was 2.22.
In the case of GPHPKSKIENGYPLHHPEAYFPYF [A16H] it was 2.32; in that of GPHPKSKIENGYPLHNPEAYFPYF [A16N], 2.25.
For GPHPKSKIENGYPLHKPEAYFPYF [A16K], the protein stability index came to 2.12.
Take GPHPKSKIENGYPLHIPEAYFPYF [A16I]: the protein stability index is 2.04.
Turning to GPHPKSKIENGYPLHVPEAYFPYF [A16V], the protein stability index was 2.21.
In the case of GPHPKSKIENGYPLHTPEAYFPYF [A16T] it was 2.41; in that of GPHPKSKIENGYPLHFPEAYFPYF [A16F], 1.82.
On to GPHPKSKIENGYPLHSPEAYFPYF [A16S], for which the protein stability index amounted to 2.14.
Turning to GPHPKSKIENGYPLHQPEAYFPYF [A16Q], the protein stability index was found to be 2.49.
In the case of GPHPKSKIENGYPLHAPNAYFPYF [E18N] it was 2.01.
As to GPHPKSKIENGYPLHAPHAYFPYF [E18H], the protein stability index amounted to 2.24.
With GPHPKSKIENGYPLHAPFAYFPYF [E18F] the figure was 1.92; with GPHPKSKIENGYPLHAPKAYFPYF [E18K], 2.23; with GPHPKSKIENGYPLHAPRAYFPYF [E18R], 2.69.
For the variant GPHPKSKIENGYPLHAPDAYFPYF [E18D], the protein stability index was determined as 2.62.
On to GPHPKSKIENGYPLHAPEAYFGYF [P22G], for which the protein stability index stood at 1.8.
With GPHPKSKIENGYPLHAPEAYFVYF [P22V] the figure was 2.19.
With GPHPKSKIENGYPLHAPEAYFCYF [P22C] the figure was 2.9; with GPHPKSKIENGYPLHAPEAYFNYF [P22N], 1.99.
In the case of GPHPKSKIENGYPLHAPEAYFDYF [P22D] it was 2.73; in that of GPHPKSKIENGYPLHAPEAYFPYD [F24D], 3.37; in that of GPHPKSKIENGYPLHAPEAYFPYA [F24A], 3.43.
As to GPHPKSKIENGYPLHAPEAYFPYC [F24C], the protein stability index worked out at 2.66.
With GPHPKSKIENGYPLHAPEAYFPYS [F24S] the figure was 2.38; with GPHPKSKIENGYPLHAPEAYFPYN [F24N], 2.62.
With GPHPKSKIENGYPLHAPEAYFPYK [F24K] the figure was 3.4; with GPHPKSKIENGYPLHAPEAYFPYL [F24L], 2.51; with GPHPKSKIENGYPLHAPEAYFPYH [F24H], 3.12.
In the case of GPHPKSKIENGYPLHAPEAYFPYW [F24W] it was 1.89; in that of GPHPKSKIENGYPLHAPEAYFPYQ [F24Q], 2.6.
Turning to GPHPKSKIENGYPLHAPEAYFPYR [F24R], the protein stability index was found to be 2.44.
On to GPHPKSKIENGYPLDAPEAYFPYF [H15D], for which the protein stability index was 2.63.
For the variant GPHPKSKIENGYPLMAPEAYFPYF [H15M], the protein stability index was 1.96.
With GPHPKSKIENGYPLGAPEAYFPYF [H15G] the figure was 2.59.
With GPHPKSKIENGYPLVAPEAYFPYF [H15V] the figure was 2.53.
As to GPHPKSKIENGYPLWAPEAYFPYF [H15W], the protein stability index was 1.2.
In the case of GPHPKSKIENGYPLQAPEAYFPYF [H15Q] it was 1.93.
Consider GPHPKSKIENGYPLCAPEAYFPYF [H15C], for which the protein stability index came out at 2.23.
With GPHPKSKIENGYPLEAPEAYFPYF [H15E] the figure was 2.79; with GPHPKSKIENGYPLYAPEAYFPYF [H15Y], 1.68.
In the case of GPHPKSKIENGYPLPAPEAYFPYF [H15P] it was 2.57; in that of VPHPKSKIENGYPLHAPEAYFPYF [G1V], 1.89.
For NPHPKSKIENGYPLHAPEAYFPYF [G1N], the protein stability index was determined as 2.56.
In the case of EPHPKSKIENGYPLHAPEAYFPYF [G1E] it was 2.44; in that of CPHPKSKIENGYPLHAPEAYFPYF [G1C], 2.1; in that of LPHPKSKIENGYPLHAPEAYFPYF [G1L], 2.05.
With DPHPKSKIENGYPLHAPEAYFPYF [G1D] the figure was 2.51; with FPHPKSKIENGYPLHAPEAYFPYF [G1F], 2.01; with QPHPKSKIENGYPLHAPEAYFPYF [G1Q], 2.03.
In the case of WPHPKSKIENGYPLHAPEAYFPYF [G1W] it was 1.73; in that of GPHPKSKITNGYPLHAPEAYFPYF [E9T], 2.22.
Consider GPHPKSKILNGYPLHAPEAYFPYF [E9L], for which the protein stability index stood at 1.76.
In the case of GPHPKSKIQNGYPLHAPEAYFPYF [E9Q] it was 2.02; in that of GPHPKSKIVNGYPLHAPEAYFPYF [E9V], 1.81.
In the case of GPHPKSKIGNGYPLHAPEAYFPYF [E9G] it was 2.31.
With GPHPKSKIPNGYPLHAPEAYFPYF [E9P] the figure was 1.69.
As for GPHPKSKIINGYPLHAPEAYFPYF [E9I], the protein stability index was 2.2.
In the case of GPHPKSKICNGYPLHAPEAYFPYF [E9C] it was 2.09.
With GPKPKSKIENGYPLHAPEAYFPYF [H3K], the protein stability index came to 2.46.
In the case of GPMPKSKIENGYPLHAPEAYFPYF [H3M] it was 2.19; in that of GPYPKSKIENGYPLHAPEAYFPYF [H3Y], 1.9.
In the case of GPQPKSKIENGYPLHAPEAYFPYF [H3Q] it was 2.7; in that of GPVPKSKIENGYPLHAPEAYFPYF [H3V], 2.41; in that of GPCPKSKIENGYPLHAPEAYFPYF [H3C], 2.01.
For the variant GPWPKSKIENGYPLHAPEAYFPYF [H3W], the protein stability index is 1.66.
With GPSPKSKIENGYPLHAPEAYFPYF [H3S] the figure was 2.55; with GPHPKSKIENVYPLHAPEAYFPYF [G11V], 2.03; with GPHPKSKIENMYPLHAPEAYFPYF [G11M], 2.09.
Take GPHPKSKIENLYPLHAPEAYFPYF [G11L]: the protein stability index was determined as 2.56.
For the variant GPHPKSKIENQYPLHAPEAYFPYF [G11Q], the protein stability index came to 2.31.
With GPHPKSKIENAYPLHAPEAYFPYF [G11A] the figure was 2.41; with GPHPKSKIENTYPLHAPEAYFPYF [G11T], 1.75; with GPHPKSKIENWYPLHAPEAYFPYF [G11W], 1.55.
With GPHPKSKIENCYPLHAPEAYFPYF [G11C] the figure was 1.73; with GPHPKSKIENGYPLHAPEAYLPYF [F21L], 2.17.
In the case of GPHPKSKIENGYPLHAPEAYNPYF [F21N] it was 2.91.
Consider GPHPKSKIENGYPLHAPEAYIPYF [F21I], for which the protein stability index stood at 2.17.
Regarding GPHPKSKIENGYPLHAPEAYAPYF [F21A], the protein stability index turned out to be 3.
Consider GPHPKSKIENGYPLHAPEAYKPYF [F21K], for which the protein stability index was determined as 3.05.
With GPHPKSKIECGYPLHAPEAYFPYF [N10C] the figure was 2.05; with GPHPKSKIEQGYPLHAPEAYFPYF [N10Q], 2.99.
In the case of GPHPKSKIESGYPLHAPEAYFPYF [N10S] it was 2.97; in that of GPHPKSKIEKGYPLHAPEAYFPYF [N10K], 2.65.
In the case of GPHPKSKIEAGYPLHAPEAYFPYF [N10A] it was 2.51; in that of GPHPKSKIEVGYPLHAPEAYFPYF [N10V], 2.06.
For the variant GPHPKSKIEDGYPLHAPEAYFPYF [N10D], the protein stability index was 1.96.
With GPHPKSKIEPGYPLHAPEAYFPYF [N10P] the figure was 2.52.
